Test results from patent US20230227508A1 (MIT, published 2023).

Tests used:
[1] = target: T1, σN-NpuN-Mdm2* bait fusion (residues 17-124 of Mdm2) (UniProt Q00987 17-124); assay: cell-based or functional assay
[2] = target: T1, σN-NpuN-Mdm2* bait fusion (residues …); assay: split intein σ factor circuit in E. coli, sfGFP read by flow cytometry

T1 sequence (Q00987 other isoform, or with tags, fused parts or gaps limits assumed): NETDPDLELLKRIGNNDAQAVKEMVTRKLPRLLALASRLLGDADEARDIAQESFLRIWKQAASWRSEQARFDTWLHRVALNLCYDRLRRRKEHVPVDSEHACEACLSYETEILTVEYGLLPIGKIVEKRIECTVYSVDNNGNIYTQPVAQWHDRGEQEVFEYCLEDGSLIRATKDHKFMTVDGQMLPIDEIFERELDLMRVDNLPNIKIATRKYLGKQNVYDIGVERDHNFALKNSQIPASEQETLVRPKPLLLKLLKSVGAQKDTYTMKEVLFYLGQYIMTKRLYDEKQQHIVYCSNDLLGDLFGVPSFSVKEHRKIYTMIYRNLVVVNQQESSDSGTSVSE

B1: ACE2*-NpuC-σC peptide fusion (N-terminal residues 19-56 of ACE2) (other, not shown: small tags and cut ends)
chain: STIEEQAKTFLDKFNHEAEDLFYQSSLASWNYNTNITERGGKGGPGGRGGVGGGGGIGGGFIASNCWLDTRPAPDEQLEASAQSRRMAQALDQLPDRQREAIVLQYYQELSNTEAAALMQISVEALESLLSRARRNLRSHLAEAPGADLSGRRKP
notes: also called ACE2a1; pAMK-857
[1]
  drop of the fluorescent output of the circuit relative to the PMI/Mdm2* pair: 15 fold
[2]
  binding result: no binding
